In the supplement of paper PMC10065799, “High-throughput profiling of sequence recognition by tyrosine kinases and SH2 domains using bacterial peptide display” (eLife, 2023):

Columns and labels:
Hck = Hck (UniProt P08631); assay: phosphorylation enrichment, bacterial display (enrichment ratio); higher = better substrate or ligand; peptides without Tyr show the background
Fer (mouse) = assay: as above
AncSZ = assay: as above
c-Src = assay: as above
FGFR1 = FGFR1 (UniProt P11362); assay: as above
Chain of FGFR1 (P11362 whole entry, looked up): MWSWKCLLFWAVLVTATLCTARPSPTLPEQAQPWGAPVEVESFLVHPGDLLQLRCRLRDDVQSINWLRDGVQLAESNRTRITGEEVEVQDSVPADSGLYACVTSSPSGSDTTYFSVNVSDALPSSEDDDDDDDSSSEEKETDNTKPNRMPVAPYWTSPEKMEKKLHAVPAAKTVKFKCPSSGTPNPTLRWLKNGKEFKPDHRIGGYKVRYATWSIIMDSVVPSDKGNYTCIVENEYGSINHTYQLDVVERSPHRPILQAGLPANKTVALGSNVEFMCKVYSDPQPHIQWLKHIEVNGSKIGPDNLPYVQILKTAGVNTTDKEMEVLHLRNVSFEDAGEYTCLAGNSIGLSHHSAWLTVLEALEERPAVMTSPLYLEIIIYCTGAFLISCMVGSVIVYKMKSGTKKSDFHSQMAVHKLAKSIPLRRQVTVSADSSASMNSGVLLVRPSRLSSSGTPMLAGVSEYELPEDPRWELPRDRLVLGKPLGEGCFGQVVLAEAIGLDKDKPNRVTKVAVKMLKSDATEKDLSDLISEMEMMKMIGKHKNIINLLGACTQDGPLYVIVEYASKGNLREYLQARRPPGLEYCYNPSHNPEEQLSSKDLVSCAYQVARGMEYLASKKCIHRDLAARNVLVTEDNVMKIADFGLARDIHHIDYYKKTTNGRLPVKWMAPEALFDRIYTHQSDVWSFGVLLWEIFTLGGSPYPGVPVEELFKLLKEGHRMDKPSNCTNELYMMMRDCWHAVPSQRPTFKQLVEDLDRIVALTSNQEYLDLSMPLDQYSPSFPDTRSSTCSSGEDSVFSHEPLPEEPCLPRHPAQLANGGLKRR

Fyn = Fyn (UniProt P06241); assay: as above
Chain of Fyn (P06241 whole entry, looked up): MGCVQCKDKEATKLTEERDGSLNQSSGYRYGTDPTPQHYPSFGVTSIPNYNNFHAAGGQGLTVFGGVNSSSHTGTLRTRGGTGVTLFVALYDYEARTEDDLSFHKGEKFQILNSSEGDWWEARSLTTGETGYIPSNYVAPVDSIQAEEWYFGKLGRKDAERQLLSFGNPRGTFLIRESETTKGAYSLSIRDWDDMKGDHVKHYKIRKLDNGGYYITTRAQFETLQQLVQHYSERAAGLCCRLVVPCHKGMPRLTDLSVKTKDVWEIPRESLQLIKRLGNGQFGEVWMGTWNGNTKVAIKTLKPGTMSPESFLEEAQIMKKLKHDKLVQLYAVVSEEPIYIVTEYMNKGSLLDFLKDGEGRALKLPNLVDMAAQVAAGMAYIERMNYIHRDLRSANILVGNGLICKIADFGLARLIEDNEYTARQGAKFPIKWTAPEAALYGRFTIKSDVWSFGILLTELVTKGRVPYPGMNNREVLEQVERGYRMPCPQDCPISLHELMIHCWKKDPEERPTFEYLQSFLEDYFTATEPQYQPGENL

c-Abl (mouse) = assay: as above
EPHB1 = EPHB1 (UniProt P54762); assay: as above
FGFR3 = FGFR3 (UniProt P22607); assay: as above
Chain of FGFR3 (P22607 whole entry, looked up): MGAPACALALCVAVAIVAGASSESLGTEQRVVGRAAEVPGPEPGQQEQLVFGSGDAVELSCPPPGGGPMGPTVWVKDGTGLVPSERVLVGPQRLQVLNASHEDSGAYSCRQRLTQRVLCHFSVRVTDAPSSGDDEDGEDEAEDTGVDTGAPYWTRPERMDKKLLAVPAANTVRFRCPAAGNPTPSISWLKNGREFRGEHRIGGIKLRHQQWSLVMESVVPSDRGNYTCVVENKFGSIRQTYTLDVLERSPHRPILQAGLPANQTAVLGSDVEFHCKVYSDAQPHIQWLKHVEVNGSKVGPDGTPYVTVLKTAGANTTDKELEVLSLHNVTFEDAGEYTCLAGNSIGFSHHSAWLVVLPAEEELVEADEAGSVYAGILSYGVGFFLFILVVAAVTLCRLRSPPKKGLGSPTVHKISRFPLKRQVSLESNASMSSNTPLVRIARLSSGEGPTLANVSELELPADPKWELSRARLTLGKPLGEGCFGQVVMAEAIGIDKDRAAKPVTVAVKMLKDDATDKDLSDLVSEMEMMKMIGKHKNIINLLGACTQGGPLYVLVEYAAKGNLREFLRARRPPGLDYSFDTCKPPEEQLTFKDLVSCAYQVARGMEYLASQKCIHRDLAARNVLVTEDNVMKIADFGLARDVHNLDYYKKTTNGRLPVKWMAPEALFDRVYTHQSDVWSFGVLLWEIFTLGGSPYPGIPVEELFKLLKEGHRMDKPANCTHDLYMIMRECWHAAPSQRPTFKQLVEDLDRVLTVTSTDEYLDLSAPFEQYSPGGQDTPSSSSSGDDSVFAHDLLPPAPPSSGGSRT

MERTK = MERTK (UniProt Q12866); assay: as above
Chain of MERTK (Q12866 whole entry, looked up): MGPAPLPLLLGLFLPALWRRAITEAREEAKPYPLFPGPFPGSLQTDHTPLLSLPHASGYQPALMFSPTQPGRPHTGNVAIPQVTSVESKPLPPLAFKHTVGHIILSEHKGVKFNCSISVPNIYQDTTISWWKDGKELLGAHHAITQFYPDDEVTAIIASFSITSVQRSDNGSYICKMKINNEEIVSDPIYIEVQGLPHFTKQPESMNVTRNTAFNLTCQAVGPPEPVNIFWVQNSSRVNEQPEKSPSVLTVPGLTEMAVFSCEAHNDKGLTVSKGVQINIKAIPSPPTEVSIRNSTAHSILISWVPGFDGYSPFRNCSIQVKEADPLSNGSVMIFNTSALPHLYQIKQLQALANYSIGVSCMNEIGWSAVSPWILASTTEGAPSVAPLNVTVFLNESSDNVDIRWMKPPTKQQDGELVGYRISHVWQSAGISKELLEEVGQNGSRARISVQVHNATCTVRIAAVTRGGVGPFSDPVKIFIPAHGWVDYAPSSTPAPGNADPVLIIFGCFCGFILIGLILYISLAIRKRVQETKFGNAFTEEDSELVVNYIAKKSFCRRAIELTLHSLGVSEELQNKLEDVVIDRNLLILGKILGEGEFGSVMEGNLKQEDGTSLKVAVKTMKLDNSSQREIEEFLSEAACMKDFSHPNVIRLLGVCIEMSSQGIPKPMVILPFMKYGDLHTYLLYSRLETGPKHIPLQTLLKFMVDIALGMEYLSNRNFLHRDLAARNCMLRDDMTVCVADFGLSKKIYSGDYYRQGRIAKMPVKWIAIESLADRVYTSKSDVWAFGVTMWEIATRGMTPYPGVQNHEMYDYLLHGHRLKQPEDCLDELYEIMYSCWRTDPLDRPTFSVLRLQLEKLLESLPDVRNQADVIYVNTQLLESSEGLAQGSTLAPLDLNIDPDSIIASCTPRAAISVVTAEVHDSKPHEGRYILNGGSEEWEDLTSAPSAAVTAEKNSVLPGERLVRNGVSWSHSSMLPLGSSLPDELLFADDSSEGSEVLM

Fes = Fes (UniProt P07332); assay: as above
Chain of Fes (P07332 whole entry, looked up): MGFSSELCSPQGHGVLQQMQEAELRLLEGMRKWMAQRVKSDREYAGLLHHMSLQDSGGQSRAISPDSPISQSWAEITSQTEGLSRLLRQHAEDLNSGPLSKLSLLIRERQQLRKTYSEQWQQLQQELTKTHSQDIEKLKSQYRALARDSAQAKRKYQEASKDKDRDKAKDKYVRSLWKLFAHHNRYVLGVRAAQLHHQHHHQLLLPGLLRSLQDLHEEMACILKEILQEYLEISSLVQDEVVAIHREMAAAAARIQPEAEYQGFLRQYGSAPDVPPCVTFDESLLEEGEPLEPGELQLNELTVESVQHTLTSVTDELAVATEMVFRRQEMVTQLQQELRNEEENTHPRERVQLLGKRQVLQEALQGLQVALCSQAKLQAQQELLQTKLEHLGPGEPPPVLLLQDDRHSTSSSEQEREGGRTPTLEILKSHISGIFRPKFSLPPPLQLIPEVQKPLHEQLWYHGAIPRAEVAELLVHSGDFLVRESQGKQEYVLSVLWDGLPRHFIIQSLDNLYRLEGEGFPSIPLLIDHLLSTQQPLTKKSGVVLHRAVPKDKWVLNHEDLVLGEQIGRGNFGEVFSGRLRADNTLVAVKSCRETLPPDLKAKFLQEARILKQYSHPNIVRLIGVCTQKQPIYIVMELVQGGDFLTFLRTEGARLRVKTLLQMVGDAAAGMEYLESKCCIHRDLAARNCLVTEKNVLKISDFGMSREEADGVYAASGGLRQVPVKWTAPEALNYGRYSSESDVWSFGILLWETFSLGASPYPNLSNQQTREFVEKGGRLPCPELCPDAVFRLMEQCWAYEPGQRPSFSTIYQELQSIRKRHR

Jak2 = Jak2 (UniProt O60674); assay: as above
EPHB2 = EPHB2 (UniProt P29323); assay: as above
c-Src SH2 = assay: SH2 binding enrichment of the phosphorylated peptide, bacterial display (enrichment ratio); higher = better substrate or ligand; peptides without Tyr show the background
SHP2-C SH2 = assay: as above
Grb2 SH2 = Grb2 SH2 (UniProt P62993); assay: as above
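Wherever SH2 binding enrichment of the phosphorylated peptide, bacterial display is given: peptide library displayed on the E. coli surface as eCPX fusions, selected cells deep-sequenced, score is each peptide's frequency after selection divided by its frequency in the input.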
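Wherever phosphorylation enrichment, bacterial display is given: 11-residue human phosphosite peptides and single-mutation variants displayed on the E. coli surface, counted by deep sequencing, each peptide's frequency after selection divided by its frequency in the unselected input library; frequency after pTyr selection over input frequency; kinase dosed for 20-30% of maximal phosphorylation in three min.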

Chain of Hck (P08631 whole entry, looked up): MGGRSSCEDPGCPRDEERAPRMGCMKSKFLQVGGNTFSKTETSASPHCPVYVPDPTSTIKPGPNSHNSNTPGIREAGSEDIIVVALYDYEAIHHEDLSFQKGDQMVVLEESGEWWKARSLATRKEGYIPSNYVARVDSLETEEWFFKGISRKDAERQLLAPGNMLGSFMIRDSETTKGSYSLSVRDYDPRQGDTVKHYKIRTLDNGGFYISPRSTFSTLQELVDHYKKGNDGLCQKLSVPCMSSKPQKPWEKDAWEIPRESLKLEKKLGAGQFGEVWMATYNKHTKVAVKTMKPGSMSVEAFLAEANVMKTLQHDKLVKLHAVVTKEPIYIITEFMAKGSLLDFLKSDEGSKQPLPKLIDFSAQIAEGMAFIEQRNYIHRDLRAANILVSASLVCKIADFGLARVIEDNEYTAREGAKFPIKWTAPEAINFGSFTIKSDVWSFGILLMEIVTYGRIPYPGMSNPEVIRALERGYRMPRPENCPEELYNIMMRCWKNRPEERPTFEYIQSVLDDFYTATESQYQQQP

Sequence | SH2 binding enrichment (c-Src SH2) | SH2 binding enrichment (SHP2-C SH2) | SH2 binding enrichment (Grb2 SH2) | phosphorylation enrichment (Hck) | phosphorylation enrichment (Fer (mouse)) | phosphorylation enrichment (AncSZ) | phosphorylation enrichment (c-Src) | phosphorylation enrichment (FGFR1) | phosphorylation enrichment (Fyn) | phosphorylation enrichment (c-Abl (mouse)) | phosphorylation enrichment (EPHB1) | phosphorylation enrichment (FGFR3) | phosphorylation enrichment (MERTK) | phosphorylation enrichment (Fes) | phosphorylation enrichment (Jak2) | phosphorylation enrichment (EPHB2)
ASMAKYFASGI [ACADSB_Y372_E376G_YF] | 0.445 | 0.86 | 1.01 | 0.404 | 0.374 | 0.544 | 0.386 | 0.424 | 0.386 | 0.574 | 0.339 | 0.441 | 0.407 | 0.79 | 0.566 | 0.517
ASMAKYYASGI [ACADSB_Y372_E376G] | 0.466 | 0.595 | 0.739 | 0.434 | 0.473 | 0.71 | 0.444 | 0.36 | 0.451 | 0.851 | 0.327 | 0.568 | 0.518 | 0.653 | 0.604 | 0.556
ATHSGYRLNDY [CLDN14_Y233] | 0.49 | 0.623 | 0.709 | 0.397 | 0.395 | 0.568 | 0.493 | 0.503 | 0.389 | 0.556 | 0.518 | 0.491 | 0.393 | 0.739 | 0.706 | 0.491
AVISVYDLVAF [PSEN1_Y256_V261F] | 0.796 | 0.837 | 0.912 | 7.4 | 16 | 1.37 | 5.87 | 0.72 | 8.21 | 0.887 | 9.68 | 0.893 | 8.85 | 2.23 | 1.08 | 9.61
AVLSLYASGCT [ACTA2_Y145_R149C] | 0.379 | 0.547 | 0.861 | 0.634 | 0.576 | 1.2 | 0.46 | 0.512 | 0.538 | 0.965 | 0.825 | 0.811 | 0.432 | 1.39 | 1.2 | 0.658
CASQLYPRHKH [DCTN4_Y263] | 0.916 | 0.865 | 0.975 | 0.483 | 0.44 | 0.673 | 0.405 | 0.533 | 0.38 | 0.807 | 0.43 | 0.639 | 0.428 | 0.928 | 1.02 | 0.464
CETMEYLESKQ [BTK_Y511_A508T] | 0.427 | 0.555 | 0.63 | 0.677 | 0.705 | 1.6 | 0.531 | 0.688 | 0.578 | 0.98 | 0.737 | 0.966 | 0.527 | 1.56 | 1.43 | 0.734
CHKRTYKVTGL | 1.07 | 0.898 | 1.13 | 0.401 | 0.398 | 0.587 | 0.455 | 0.362 | 0.417 | 0.564 | 0.405 | 0.465 | 0.375 | 0.667 | 0.657 | 0.357
CNPLRYPTIMI [OR6K6_Y160] | 0.458 | 0.829 | 0.822 | 0.5 | 0.419 | 0.946 | 0.464 | 0.584 | 0.524 | 0.737 | 0.49 | 0.84 | 0.482 | 0.962 | 0.871 | 0.758
CNRADYSKLAP [GNE_Y22] | 1.18 | 0.622 | 0.793 | 0.459 | 0.485 | 0.749 | 0.412 | 0.472 | 0.458 | 0.556 | 0.613 | 0.61 | 0.609 | 0.844 | 0.621 | 0.607
CNSFQYGGGGG [NPPA_Y151_R150Q] | 0.531 | 0.806 | 0.845 | 0.497 | 0.512 | 0.794 | 0.532 | 0.409 | 0.436 | 0.731 | 0.501 | 0.549 | 0.447 | 0.919 | 0.716 | 0.452
CSSPTYRDCLQ [LARGE2_Y682_R677C] | 1 | 1.15 | 0.94 | 0.473 | 0.408 | 0.812 | 0.484 | 0.49 | 0.402 | 0.503 | 0.5 | 0.738 | 0.37 | 0.892 | 0.846 | 0.436
CTHDLYMFMRE [FGFR3_Y724_I726F] | 0.436 | 0.636 | 0.71 | 1.06 | 0.994 | 1.43 | 2.37 | 1.76 | 0.584 | 0.992 | 2.23 | 1.45 | 1.9 | 1.56 | 1.34 | 1.04
CTNPRYLAAGS [RABL3_Y185] | 0.444 | 0.609 | 0.767 | 0.357 | 0.629 | 0.794 | 0.467 | 0.507 | 0.426 | 0.787 | 0.496 | 0.646 | 0.415 | 0.767 | 0.915 | 0.486
DCLASYLDKVR [KRT10_Y160_R156C] | 0.55 | 0.711 | 0.932 | 0.452 | 0.402 | 0.886 | 0.419 | 0.56 | 0.422 | 0.706 | 0.55 | 0.659 | 0.4 | 0.953 | 0.842 | 0.659
DDFNLYINVKL [MTHFD1_Y52_S49F] | 0.458 | 0.732 | 0.794 | 0.558 | 0.38 | 1.47 | 0.472 | 0.511 | 0.46 | 0.984 | 0.86 | 0.997 | 0.483 | 1.67 | 1.67 | 0.563
DDLTDYLMKIL [ACTA1_Y190_R185D] | 0.689 | 1.26 | 0.962 | 0.519 | 0.457 | 1.22 | 0.548 | 0.516 | 0.444 | 0.758 | 0.476 | 0.669 | 0.529 | 1.1 | 1.15 | 0.553
DDPRRYQKYGY [OAS1_Y362] | 0.894 | 1.3 | 1.05 | 0.499 | 0.403 | 0.598 | 0.438 | 0.414 | 0.426 | 0.592 | 0.368 | 0.446 | 0.368 | 0.591 | 0.507 | 0.544
DDPRTYQKFGF [OAS1_Y362_R361T_YF] | 0.523 | 0.531 | 0.78 | 0.526 | 0.423 | 0.825 | 0.693 | 0.473 | 0.717 | 0.607 | 0.519 | 0.544 | 0.439 | 0.928 | 0.773 | 0.469
DGYTDYAEFAK [MCFD2_Y138_I136T] | 1.22 | 0.592 | 0.651 | 0.74 | 0.4 | 1.03 | 0.942 | 0.754 | 0.96 | 0.734 | 0.829 | 0.699 | 0.463 | 0.844 | 0.765 | 0.706

The next lines start with results.

SH2 binding enrichment (c-Src SH2) | SH2 binding enrichment (SHP2-C SH2) | SH2 binding enrichment (Grb2 SH2) | Sequence | phosphorylation enrichment (Hck) | phosphorylation enrichment (Fer (mouse)) | phosphorylation enrichment (AncSZ) | phosphorylation enrichment (c-Src) | phosphorylation enrichment (FGFR1) | phosphorylation enrichment (Fyn) | phosphorylation enrichment (c-Abl (mouse)) | phosphorylation enrichment (EPHB1) | phosphorylation enrichment (FGFR3) | phosphorylation enrichment (MERTK) | phosphorylation enrichment (Fes) | phosphorylation enrichment (Jak2) | phosphorylation enrichment (EPHB2)
1.52 | 1.43 | 2.19 | CITIHYNFMCN [TP53_Y234_T230I_YF] | 0.489 | 0.574 | 0.946 | 0.607 | 0.582 | 0.46 | 0.661 | 0.59 | 0.886 | 0.456 | 1.44 | 1.31 | 0.711
2.27 | 1.11 | 18.2 | CLGNQYVNVMN [SLC3A1_Y461_R456C] | 0.448 | 0.475 | 1.11 | 0.437 | 0.567 | 0.403 | 0.689 | 0.588 | 0.955 | 0.336 | 1.05 | 1 | 0.608
2.14 | 1.47 | 1.64 | CTTFHYNFMCN [TP53_Y234_I232F_YF] | 0.479 | 0.581 | 0.923 | 0.595 | 0.579 | 0.501 | 0.641 | 0.468 | 0.672 | 0.4 | 1.1 | 0.866 | 0.57
1.02 | 1.39 | 1.1 | CTTIHSNYMCN [TP53_Y234_Y234S] | 0.448 | 0.44 | 0.853 | 0.387 | 0.483 | 0.478 | 0.576 | 0.542 | 0.588 | 0.479 | 0.915 | 0.608 | 0.563
1.89 | 0.818 | 2.45 | CTTIHYNNMCN [TP53_Y234_Y236N] | 0.532 | 0.404 | 0.734 | 0.416 | 0.423 | 0.486 | 0.528 | 0.455 | 0.538 | 0.367 | 0.943 | 0.551 | 0.479
8.55 | 2.32 | 1.16 | CTTIHYNYMCD [TP53_Y234_N239D] | 0.469 | 0.465 | 0.796 | 0.422 | 0.57 | 0.405 | 0.545 | 0.647 | 0.631 | 0.426 | 0.898 | 0.625 | 0.515
2.6 | 2.53 | 1.87 | CTTIHYNYMCI [TP53_Y234_N239I] | 0.494 | 1.05 | 0.946 | 0.462 | 2.52 | 0.487 | 0.509 | 5.99 | 1.55 | 1.41 | 1 | 0.859 | 2.4
1.1 | 0.887 | 0.843 | CTTIHYNYMYN [TP53_Y234_C238Y] | 0.563 | 1.21 | 1.12 | 0.543 | 0.877 | 0.507 | 0.684 | 0.945 | 0.844 | 1 | 1.22 | 0.91 | 0.69
0.598 | 0.767 | 1.01 | DASENYFVMDS [TMEM240_Y77_T80M] | 0.457 | 0.732 | 1.91 | 0.569 | 8.76 | 0.392 | 0.677 | 6.62 | 7.01 | 1.92 | 1.1 | 0.952 | 4.43
0.406 | 0.82 | 0.717 | DAVAVYHGKIS [SH2D1A_Y7] | 0.533 | 0.379 | 0.593 | 0.348 | 0.388 | 0.442 | 0.51 | 0.395 | 0.492 | 0.369 | 0.744 | 0.603 | 0.442
0.547 | 0.542 | 0.834 | DDDPEYRKFLE [UPF3B_Y160] | 0.597 | 0.478 | 1.32 | 0.483 | 0.669 | 0.617 | 0.577 | 0.612 | 0.799 | 0.566 | 1.22 | 1.06 | 0.7
0.513 | 0.683 | 0.678 | DGQSVYKLTDF [TBK1_Y153] | 0.751 | 0.775 | 0.725 | 3.06 | 0.434 | 2.52 | 0.444 | 0.426 | 0.474 | 0.471 | 0.775 | 0.765 | 0.37
0.489 | 0.632 | 0.936 | DGTIVCTGLET [USH2A_Y4487_Y4487C] | 0.438 | 0.582 | 0.955 | 0.499 | 0.509 | 0.454 | 0.837 | 0.533 | 0.636 | 0.47 | 1.12 | 1.06 | 0.558
